{
  "source": "patent US20170145391",
  "proteins": {"B1": {"name": "FLAG-mTORβ (protein)", "chain": "MLGTGPAAATTAATTSSNVSVLQKKVTEDLSKTLLMYTVPAVQGFFRSISLSRGNNLQDTLRVLTLWFDYGHWPDVNEALVEGVKAIQIDTWLQVIPQLIARIDTPRPLVGRLIHQLLTDIGRYHPQALIYPLTVASKSTTTARHNAANKILKNMCEHSNTLVQQAMMVSEELIRVAILWHEMWHEGLEEASRLYFGERNVKGMFEVLEPLHAMMERGPQTLKETSFNQAYGRDLMEAQEWCRKYMKSGNVKDLTQAWDLYYHVFRRISKQLPQLTSLELQYVSPKLLMCRDLELAVPGTYDPNQPIIRIQSIAPSLQVITSKQRPRKLTLMGSNGHEFVFLLKGHEDLRQDERVMQLFGLVNTLLANDPTSLRKNLSIQRYAVIPLSTNSGLIGWVPHCDTLHALIRDYREKKKILLNIEHRIMLRMAPDYDHLTLMQKVEVFEHAVNNTAGDDLAKLLWLKSPSSEVWFDRRTNYTRSLAVMSMVGYILGLGDRHPSNLMLDRLSGKILHIDFGDCFEVAMTREKFPEKIPFRLTRMLTNAMEVTGLDGNYRITCHTVMEVLREHKDSVMAVLEAFVYDPLLNWRLMDTNTKGNKRSRTRTDSYSAGQSVEILDGVELGEPAHKKTGTTVPESIHSFIGDGLVKPEALNKKAIQIINRVRDKLTGRDFSHDDTLDVPTQVELLIKQATSHENLCQCYIGWCPFW"}},
  "key": {"[1]": {"target": "4E-BP1 (Calbiochem), Q13541", "sequence (Q13541 whole entry)": "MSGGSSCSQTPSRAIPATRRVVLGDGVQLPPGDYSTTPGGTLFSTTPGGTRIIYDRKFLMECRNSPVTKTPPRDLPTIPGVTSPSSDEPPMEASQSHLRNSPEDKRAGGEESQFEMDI"}},
  "data": [
    {"protein": "B1", "values": [
      {"measurement": "mTOR in vitro kinase assay; immunoblot with phosphospecific antibody pT389-S6K1", "setting": "His-S6K1C, P23443", "result": "mTORβ can phosphorylate both S6K1 and 4E-BP1 in vitro, but to a lesser extent than mTORα"},
      {"measurement": "mTOR in vitro kinase assay; immunoblot with phosphospecific antibody pS65-4E-BP1", "setting": "[1]", "result": "mTORβ can phosphorylate both S6K1 and 4E-BP1 in vitro, but to a lesser extent than mTORα"}
    ]}
  ]
}
